Measurements published in patent US20080044413A1 (published 2008).

Experiments:
[1] = biological target: T1, Human EphA2-Fc fusion protein (human, UniProt P29317 24-537); test: SPR, immobilized EphA2-Fc surface; (MT)
T1 construct: extracellular domain; Expressed in HEK 293 cells; Biotinylated in the capture ELISAs; also called soluble EphA2 Fc fusion protein; not shown: Fc portion of a human IgG1
Excerpt: (§1) The formation and dissociation of BiTE/EphA2 complexes was monitored by surface plasmon resonance using a Biacore 3000 system. For this purpose, EphA2 Fc fusion protein was immobilized on a sensor chip with a CM5 carboxymethylated dextran matrix. Optimal immobilization conditions were identified through pH scouting (sodium acetate pH 4.0 to pH 5.5; disodium tetraborate pH 8.5). The optimal pH value was pH 4.0. After immobilization of 1000 RU to flow cell 2, 5,000 RU to flow cell 3 and 400 RU to flow cell 4, excess reactive groups were deactivated by ethanolamine. The affinity of the anti-EphA2 BiTE to immobilized EphA2 was determined by injecting different concentrations of the analyte deimmunized anti-CD3×EA2 VHVL diluted in HBS-EP buffer. To regenerate the surface, REGEN buffer (50 mM NaOH; 20 mM MES; 1 mM NaCl pH 6.4) was used.

[2] = biological target: T2, human EphA2 (human, UniProt P29317 24-976); test: cell-based or functional assay
[3] = biological target: T2, human EphA2; test: cell-based or functional assay; remark: listed apart in the source
[4] = biological target: T1, Human EphA2-Fc fusion protein; test: SPR, immobilized EphA2-Fc surface; (MedI)
[5] = biological target: T2, human EphA2; test: cell-based or functional assay; remark: listed apart in the source
[6] = biological target: T2, human EphA2; test: cell-based or functional assay; remark: listed apart in the source
[7] = biological target: T2, human EphA2; test: cell-based or functional assay; remark: listed apart in the source
[8] = biological target: T1, Human EphA2-Fc fusion protein; test: SPR (Biacore 3000), EphA2 Fc fusion protein immobilized on CM5, BiTE as analyte
Excerpt: as §1

[9] = biological target: T3, soluble CD3εγ (human, UniProt P07766 23-118; P09693 23-103); test: SPR, immobilized soluble CD3εγ surface; estimate, biphasic association
T3 construct: Amine-coupled to a CM5 chip

[10] = biological target: T2, human EphA2; test: cell-based or functional assay; remark: listed apart in the source
[11] = biological target: T1, Human EphA2-Fc fusion protein; test: method and format of the clone not stated in this paragraph (framework shuffling)
[12] = biological target: T4, cynomolgus EphA2 (cynomolgus, UniProt Q1KL86 24-976); test: flow cytometry on cynomolgus EphA2 transfected CHO cells, antibody 10 µg/ml, AlexaFluor 488 anti-mouse or anti-human IgG (H+L)
T4 construct: whole, on cells; also called cynomolgus EphA2 expressed on transfected CHO cells
Method: Subconfluent monolayers of SW480 colon carcinoma or cynomolgus EphA2 transfected CHO cells were quickly trypsinized, washed, counted, plated into 96-well round bottom plates, and stained with 10 μg/ml of a negative control antibody (R347), the anti-human EphA2 murine antibody, EA2 (Coffman 2003), or humanized antibodies, 3F2 and 4H5. Cells were resuspended in AlexaFluor 488 anti-mouse or anti-human IgG H+L (Invitrogen) and then analyzed by flow cytometry using a FACSCalibur (Becton Dickinson).

[13] = biological target: T1, Human EphA2-Fc fusion protein; test: method not stated in this paragraph (framework shuffling)
[14] = biological target: T1, Human EphA2-Fc fusion protein; test: SPR (Biacore 3000), soluble IgG on immobilized EphA2-Fc

T4 sequence (Q1KL86 24-976): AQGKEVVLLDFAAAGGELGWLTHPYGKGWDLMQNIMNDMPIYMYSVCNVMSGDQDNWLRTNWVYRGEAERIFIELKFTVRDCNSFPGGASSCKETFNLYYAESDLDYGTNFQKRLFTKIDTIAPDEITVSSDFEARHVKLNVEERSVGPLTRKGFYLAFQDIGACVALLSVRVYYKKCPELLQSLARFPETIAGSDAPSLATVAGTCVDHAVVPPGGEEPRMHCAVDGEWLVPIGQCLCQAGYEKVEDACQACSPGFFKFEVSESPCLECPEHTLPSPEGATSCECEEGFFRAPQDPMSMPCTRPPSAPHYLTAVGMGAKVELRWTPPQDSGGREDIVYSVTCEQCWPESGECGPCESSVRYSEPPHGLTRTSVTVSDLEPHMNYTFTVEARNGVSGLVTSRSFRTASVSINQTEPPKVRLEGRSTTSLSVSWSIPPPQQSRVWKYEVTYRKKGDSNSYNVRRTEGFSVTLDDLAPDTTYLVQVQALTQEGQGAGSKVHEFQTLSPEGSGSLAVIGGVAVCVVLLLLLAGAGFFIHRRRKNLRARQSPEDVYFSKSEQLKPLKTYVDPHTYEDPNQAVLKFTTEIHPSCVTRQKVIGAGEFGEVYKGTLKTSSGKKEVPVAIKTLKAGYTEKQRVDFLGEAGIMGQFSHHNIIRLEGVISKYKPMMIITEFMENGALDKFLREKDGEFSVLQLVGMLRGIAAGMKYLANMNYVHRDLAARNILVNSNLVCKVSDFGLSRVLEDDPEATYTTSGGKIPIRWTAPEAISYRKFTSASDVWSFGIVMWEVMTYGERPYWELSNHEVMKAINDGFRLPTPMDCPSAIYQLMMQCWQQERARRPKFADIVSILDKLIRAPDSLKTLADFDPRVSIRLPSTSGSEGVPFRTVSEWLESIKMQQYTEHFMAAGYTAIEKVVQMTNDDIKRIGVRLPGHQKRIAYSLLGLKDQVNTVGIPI

B1: EphA2-BiTE deimmunized anti-CD3 (VH/VL) × EA2 (VH/VL) (bispecific antibody)
chain: DVQLVQSGAEVKKPGASVKVSCKASGYTFTRYTMHWVRQAPGQGLEWIGYINPSRGYTNYADSVKGRFTITTDKSTSTAYMELSSLRSEDTATYYCARYYDDHYCLDYWGQGTTVTVSSGEGTSTGSGGSGGSGGADDIVLTQSPATLSLSPGERATLSCRASQSVSYMNWYQQKPGKAPKRWIYDTSKVASGVPARFSGSGSGTDYSLTINSLEAEDAATYYCQQWSSNPLTFGGGTKVEIKSGGGGSDVKLVESGGGLVKPGGSLKLSCAASGFTFSSYTMSWVRQTPEKRLEWVATISSGGTYTYYPDSVKGRFTISRDNAKNTLYLQMSSLKSEDTAMYYCTREAIFTYWGQGTLVTVSSGGGGSGGGGSGGGGSDIKMTQSPSSMYASLGERVTITCKASQDINNYLSWFQQKPGKSPKTLIYRANRLVDGVPSRFSGSGSGQDYSLTISSLEYEDMGIYYCLKYDEFPYTFGGGTKLEIKHHHHHH
notes: C-terminal His tag; Purified monomer from CHO cells; also called deimmunized anti-CD3×EA2 (VH/VL); deimmunized anti-CD3-EA2(VH/VL)
[1]
  Kd: 45 nM
[2]
  EC 50 of lysis, 51Cr release, B16 F10 EphA2 transfected cells, stimulated human CD8 T-cells, E:T 10:1, 18 h: 21.7 ng/mL
[3]
  EC50 of tumor cell killing, ACHN cells: 3 ng/mL
  EC50 of tumor cell killing, Caki 2 cells: 30 ng/mL
  EC50 of tumor cell killing, DU145 cells: 0.8 ng/mL
  EC50 of tumor cell killing, PC3 cells: 6 ng/mL
  EC50 of tumor cell killing, SW480 cells: 6 ng/mL
  median EC50 of tumor cell killing, SW480 targets, 49 donors: 24 ng/mL
[4]
  Kd: 113 nM
[5]
  EC50 of redirected lysis, A549, PBMC effectors, batch 040507PMa02: 32.8 ng/mL
  EC50 of redirected lysis, A549, PBMC effectors, batch 040907USy02: 10.2 ng/mL
  EC50 of redirected lysis, A549, stimulated CD8 T-cells, batch 040507PMa02: 3.3 ng/mL
  EC50 of redirected lysis, A549, stimulated CD8 T-cells, batch 040907USy02: 1.6 ng/mL
  EC50 of redirected lysis, MDA MB 231, PBMC effectors, batch 040507PMa02: 7.6 ng/mL
  EC50 of redirected lysis, MDA MB 231, PBMC effectors, batch 040907USy02: 3.2 ng/mL
  EC50 of redirected lysis, MDA MB 231, stimulated CD8 T-cells, batch 040507PMa02: 0.7 ng/mL
  EC50 of redirected lysis, MDA MB 231, stimulated CD8 T-cells, batch 040907USy02: 0.5 ng/mL
[6]
  EC50 of redirected lysis, 51Cr release, A549: 123 ng/mL
  EC50 of redirected lysis, 51Cr release, A549, second experiment: 24.8 ng/mL
  EC50 of redirected lysis, 51Cr release, MDA MB231: 5.8 ng/mL
  EC50 of redirected lysis, 51Cr release, MDA MB231, second experiment: 8.6 ng/mL
[7]
  EC50 of cytotoxic activity, 51Cr release, MDA-MB231 target cells, NK cell-depleted PBMC, E:T 10:1, 18 h; BiTE diluted directly before assay in medium (control): 1.9 ng/mL
  EC50 of cytotoxic activity, 51Cr release, MDA-MB231 target cells, NK cell-depleted PBMC, E:T 10:1, 18 h; BiTE diluted directly before assay in plasma (control): 2 ng/mL
  EC50 of cytotoxic activity, 51Cr release, MDA-MB231 target cells, NK cell-depleted PBMC, E:T 10:1, 18 h; BiTE kept 24 h in plasma at 4° C. before the assay: 2.2 ng/mL
  EC50 of cytotoxic activity, 51Cr release, MDA-MB231 target cells, NK cell-depleted PBMC, E:T 10:1, 18 h; BiTE kept 24 h in plasma at 37° C. before the assay: 3.1 ng/mL
[8]
  Kd: 44.6 nM
  koff: 0.0426 s⁻¹
  kon: 956000 M⁻¹ s⁻¹
[9]
  Kd: 400 to 500 nM
[10]
  EC50 of redirected lysis, A549, NK cell-depleted PBMC of Donor #1: 20.9 ng/mL
  EC50 of redirected lysis, A549, NK cell-depleted PBMC of Donor #2: 22.6 ng/mL
  EC50 of redirected lysis, A549, NK cell-depleted PBMC of Donor #3: 24.8 ng/mL
  EC50 of redirected lysis, A549, NK cell-depleted PBMC of Donor #4: 28.5 ng/mL
  EC50 of redirected lysis, A549, NK cell-depleted PBMC of Donor #6: 32.8 ng/mL
  EC50 of redirected lysis, A549, NK cell-depleted PBMC of Donor #7: 6.6 ng/mL
  EC50 of redirected lysis, MDA-MB 231, NK cell-depleted PBMC of Donor #1: 15.4 ng/mL
  EC50 of redirected lysis, MDA-MB 231, NK cell-depleted PBMC of Donor #2: 5.8 ng/mL
  EC50 of redirected lysis, MDA-MB 231, NK cell-depleted PBMC of Donor #3: 8.6 ng/mL
  EC50 of redirected lysis, MDA-MB 231, NK cell-depleted PBMC of Donor #4: 23.9 ng/mL
  EC50 of redirected lysis, MDA-MB 231, NK cell-depleted PBMC of Donor #5: 1.9 ng/mL
  EC50 of redirected lysis, MDA-MB 231, NK cell-depleted PBMC of Donor #6: 7.6 ng/mL
  EC50 of redirected lysis, MDA-MB 231, NK cell-depleted PBMC of Donor #7: 3.2 ng/mL

B2: humanized anti-human EphA2 mAb 4H5 (antibody, V domains shown)
VH: QVQLLESGGGLVQPGGSLRLSCAASGFTFSSYTMSWVRQAPGQALEWMGTISSGGTYTYYPDSVKGRFTISRDNAKNSLYLQMNSLRAEDTAVYYCAREAIFTYWGRGTLVTVSS
VL: DIQLTQSPSSLSASVGDRVTITCKASQDINNYLSWYQQKPGQAPRLLIYRANRLVDGVPDRFSGSGYGTDFTLTINNIESEDAAYYFCLKYDVFPYTFGQGTKVEIK
notes: Humanized from EA2 by framework shuffling; detected with anti-human IgG; also called humanized clone 4H5
[11]
  fold increase of affinity compared with chimaeric Fab EA2: ~20 fold
[12]
  binding result: binds

B3: Humanized 2G6 (antibody, human IgG1, V domains shown)
VH: EVQLVESGGGVVRPGGSLRLSCAASGFTVSDYSMNWVRQAPGKGLEWIGFIRNKANDYTTEYSASVKGRFTISRDDSKNTLYLQMNSLKTEDTAVYYCTTYPRYHAMDSWGQGTMVTVSS
VL: AIQLTQSPSSLSASVGDRVTITCRASQSISNNLHWYLQKPGQSPQLLIYYVFQSISGVPSRFSGSGSGTDFTLTISSLQPEDFATYYCQQSNSWPLTFGGGTKLEIK
notes: Framework-shuffled humanized B233; human IgG1 with human kappa chain in the Biacore analysis
[13]
  fold loss of affinity compared with chimaeric mAb B233: ~10 fold
[14]
  Kd: 3 nM
  koff: 0.00019 s⁻¹
  kon: 64000 M⁻¹ s⁻¹
